Data set [1] concerns the target T1, CD109 (endogenous, 5-8F cells) (UniProt Q6YHK3).
T1 sequence: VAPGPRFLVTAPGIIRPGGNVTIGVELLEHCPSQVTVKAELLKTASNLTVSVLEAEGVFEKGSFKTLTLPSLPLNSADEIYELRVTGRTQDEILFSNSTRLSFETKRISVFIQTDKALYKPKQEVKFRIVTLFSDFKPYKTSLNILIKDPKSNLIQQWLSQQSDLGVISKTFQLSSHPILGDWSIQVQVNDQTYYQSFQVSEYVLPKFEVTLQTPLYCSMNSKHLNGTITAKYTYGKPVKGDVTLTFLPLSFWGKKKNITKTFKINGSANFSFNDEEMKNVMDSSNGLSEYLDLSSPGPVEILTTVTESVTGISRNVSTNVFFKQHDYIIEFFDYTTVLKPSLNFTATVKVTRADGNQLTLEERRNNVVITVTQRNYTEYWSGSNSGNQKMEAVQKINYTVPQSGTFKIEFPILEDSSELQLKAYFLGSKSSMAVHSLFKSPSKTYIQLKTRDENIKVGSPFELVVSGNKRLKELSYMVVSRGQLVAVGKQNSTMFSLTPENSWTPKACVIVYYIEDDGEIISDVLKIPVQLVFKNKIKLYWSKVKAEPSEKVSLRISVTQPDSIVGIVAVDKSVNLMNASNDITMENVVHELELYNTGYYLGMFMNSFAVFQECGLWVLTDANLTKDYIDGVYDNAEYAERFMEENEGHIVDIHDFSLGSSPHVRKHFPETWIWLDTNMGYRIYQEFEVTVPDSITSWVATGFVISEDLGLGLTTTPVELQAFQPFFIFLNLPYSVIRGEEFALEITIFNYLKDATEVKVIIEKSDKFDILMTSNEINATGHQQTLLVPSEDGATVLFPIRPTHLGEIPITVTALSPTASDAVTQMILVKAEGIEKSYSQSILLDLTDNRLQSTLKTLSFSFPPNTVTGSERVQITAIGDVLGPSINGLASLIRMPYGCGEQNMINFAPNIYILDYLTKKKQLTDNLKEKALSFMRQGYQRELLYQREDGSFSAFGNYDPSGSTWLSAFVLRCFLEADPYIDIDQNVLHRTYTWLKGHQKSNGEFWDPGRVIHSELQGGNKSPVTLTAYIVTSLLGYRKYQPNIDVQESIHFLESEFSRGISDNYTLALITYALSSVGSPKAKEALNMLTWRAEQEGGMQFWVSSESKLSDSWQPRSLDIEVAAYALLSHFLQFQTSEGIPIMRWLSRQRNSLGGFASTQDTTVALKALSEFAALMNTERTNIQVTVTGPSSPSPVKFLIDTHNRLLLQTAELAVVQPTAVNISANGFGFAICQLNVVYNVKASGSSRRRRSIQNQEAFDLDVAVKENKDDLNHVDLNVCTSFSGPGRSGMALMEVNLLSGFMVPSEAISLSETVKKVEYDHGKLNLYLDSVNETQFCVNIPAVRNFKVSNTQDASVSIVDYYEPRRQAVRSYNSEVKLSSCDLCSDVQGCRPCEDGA
As to the kind of experiment: flow cytometry. The conditions noted are these: whole 5-8F cells, on ice, 10% FBS, library background subtracted, Cells: D-PBS (Ca/Mg-free) + 4.5 g/L glucose, 5 mM MgCl2, 0.1 mg/mL yeast tRNA, 1 mg/mL BSA, on ice 0.5 h, EMSA: binding buffer, 4 C, 5% native PAGE in ….

The target in data set [2] is CD109 (recombinant) (Homo sapiens, UniProt Q6YHK3 22-1420). As to the kind of experiment: EMSA; 4 C; Cells: D-PBS (Ca/Mg-free) + 4.5 g/L glucose, 5 mM MgCl2, 0.1 mg/mL yeast tRNA, 1 mg/mL BSA, 10% FBS, on ice 0.5 h; EMSA: binding buffer, 4 C, 5% native PAGE in. The conditions noted are these: protein: commercial; label: FAM.

Turning to “ATCCAGAGTGACGCAGCATCTGAGAATAGTGGTTTGCTGTATGGTGGGCGTTGAAAGAGGGGTGGACACGGTGGCTTAGT [S3 (FITC-labeled)]”, the dissociation constant Kd in data set [1] was found to be 11.9 nM.

B1: S3 (FAM-labeled) (ssDNA)
DNA: ATCCAGAGTGACGCAGCATCTGAGAATAGTGGTTTGCTGTATGGTGGGCGTTGAAAGAGGGGTGGACACGGTGGCTTAGT
With B1, the binding result in data set [2] was “binds”.
